Experimental data taken from publication PMC3131385, “TBP Binding-Induced Folding of the Glucocorticoid Receptor AF1 Domain Facilitates Its Interaction with Steroid Receptor Coactivator-1” (PLoS ONE, 2011).

B1: glucocorticoid receptor (GR) N-terminal activation function domain AF1 (domain or fragment, human, UniProt P04150 77-262, looked up)
chain: DLSKAVSLSMGLYMGETETKVMGNDLGFPQQGQISLSSGETDLKLLEESIANLNRSTSVPENPKSSASTAVSAAPTEKEFPKTHSDVSSEQQHLKGQTGTNGGNVKLYTTDQSTFDILQDLEFSSGSPGKETNESPWRSDLLIDENCLLSPLAGEDDSFLLEGNSNEDCKPLILPDTKPKIKDNGD
notes: human glucocorticoid receptor, AF1 domain, amino acid residues 77-262; made from human GR cDNA digested with BglII; also called GR AF1
B3: TBPC, 181 C-terminal residues of human TATA box binding protein (TBP) (domain or fragment, UniProt P20226 159-339, looked up)
chain: SGIVPQLQNIVSTVNLGCKLDLKTIALRARNAEYNPKRFAAVIMRIREPRTTALIFSSGKMVCTGAKSEEQSRLAARKYARVVQKLGFPAKFLDFKIQNMVGSCDVKFPIRLEGLVLTHQQFSSYEPELFPGLIYRMIKPRIVLLIFVSGKVVLTGAKVRAEIYEAFENIYPILKGFRKTT
notes: source: E. coli BL21(DE3), purified (NTA column, imidazole step-gradient)

Tests used:
[1] = target: T1, TBPC, 181 C-terminal residues of human TATA box binding protein (TBP) (human, UniProt P20226 159-339); assay: SPR
T1 chain: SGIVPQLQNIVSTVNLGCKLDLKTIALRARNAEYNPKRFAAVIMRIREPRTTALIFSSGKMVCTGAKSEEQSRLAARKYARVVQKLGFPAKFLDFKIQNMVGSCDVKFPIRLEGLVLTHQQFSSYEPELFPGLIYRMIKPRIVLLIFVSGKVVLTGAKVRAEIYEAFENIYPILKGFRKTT

[2] = target: B3; assay: SPR; TBPc immobilised on C1 chip (Fc2, 200-250 RU, through ionic interaction), AF1 as analyte 0.2-6.4 µM, multi-cycle kinetics, room temperature, 0.01 M HEPES pH 7.4, 0.15 M NaCl, 50 µM EDTA, 0.05% Tween-20; 1:1 Langmuir model, KD = kd/ka; conditions: both partners purified
[3] = target: T2, steroid receptor coactivator-1 (SRC-1) (human (endogenous in HeLa), UniProt Q15788 1-1441); assay: co-IP; SRC-1 antibody on protein A/G-agarose beads; HeLa nuclear extract (0.5 mg total protein) mixed with 10 µg purified AF1 and/or TBPC, 4°C; blot with GR AF1 antibody; conditions: one partner purified
T2 construct: source: endogenous, HeLa nuclear extract

[4] = target: B1; assay: circular dichroism titration; far-UV CD at 22°C, AF1 fixed at 4.5 µM, TBPC varied (AF1:TBPC 1:0.25 to 1:2); ellipticity at 220 nm, experimental against theoretical sum; conditions: both partners purified
[5] = target: B1; assay: SPR; TBPc immobilised on C1 chip (Fc2, 200-250 RU, through ionic interaction), AF1 as analyte 0.2-6.4 µM, multi-cycle kinetics, room temperature, 0.01 M HEPES pH 7.4, 0.15 M NaCl, 50 µM EDTA, 0.05% Tween-20; 1:1 Langmuir model, KD = kd/ka; conditions: both partners purified

T2 sequence (Q15788 whole entry): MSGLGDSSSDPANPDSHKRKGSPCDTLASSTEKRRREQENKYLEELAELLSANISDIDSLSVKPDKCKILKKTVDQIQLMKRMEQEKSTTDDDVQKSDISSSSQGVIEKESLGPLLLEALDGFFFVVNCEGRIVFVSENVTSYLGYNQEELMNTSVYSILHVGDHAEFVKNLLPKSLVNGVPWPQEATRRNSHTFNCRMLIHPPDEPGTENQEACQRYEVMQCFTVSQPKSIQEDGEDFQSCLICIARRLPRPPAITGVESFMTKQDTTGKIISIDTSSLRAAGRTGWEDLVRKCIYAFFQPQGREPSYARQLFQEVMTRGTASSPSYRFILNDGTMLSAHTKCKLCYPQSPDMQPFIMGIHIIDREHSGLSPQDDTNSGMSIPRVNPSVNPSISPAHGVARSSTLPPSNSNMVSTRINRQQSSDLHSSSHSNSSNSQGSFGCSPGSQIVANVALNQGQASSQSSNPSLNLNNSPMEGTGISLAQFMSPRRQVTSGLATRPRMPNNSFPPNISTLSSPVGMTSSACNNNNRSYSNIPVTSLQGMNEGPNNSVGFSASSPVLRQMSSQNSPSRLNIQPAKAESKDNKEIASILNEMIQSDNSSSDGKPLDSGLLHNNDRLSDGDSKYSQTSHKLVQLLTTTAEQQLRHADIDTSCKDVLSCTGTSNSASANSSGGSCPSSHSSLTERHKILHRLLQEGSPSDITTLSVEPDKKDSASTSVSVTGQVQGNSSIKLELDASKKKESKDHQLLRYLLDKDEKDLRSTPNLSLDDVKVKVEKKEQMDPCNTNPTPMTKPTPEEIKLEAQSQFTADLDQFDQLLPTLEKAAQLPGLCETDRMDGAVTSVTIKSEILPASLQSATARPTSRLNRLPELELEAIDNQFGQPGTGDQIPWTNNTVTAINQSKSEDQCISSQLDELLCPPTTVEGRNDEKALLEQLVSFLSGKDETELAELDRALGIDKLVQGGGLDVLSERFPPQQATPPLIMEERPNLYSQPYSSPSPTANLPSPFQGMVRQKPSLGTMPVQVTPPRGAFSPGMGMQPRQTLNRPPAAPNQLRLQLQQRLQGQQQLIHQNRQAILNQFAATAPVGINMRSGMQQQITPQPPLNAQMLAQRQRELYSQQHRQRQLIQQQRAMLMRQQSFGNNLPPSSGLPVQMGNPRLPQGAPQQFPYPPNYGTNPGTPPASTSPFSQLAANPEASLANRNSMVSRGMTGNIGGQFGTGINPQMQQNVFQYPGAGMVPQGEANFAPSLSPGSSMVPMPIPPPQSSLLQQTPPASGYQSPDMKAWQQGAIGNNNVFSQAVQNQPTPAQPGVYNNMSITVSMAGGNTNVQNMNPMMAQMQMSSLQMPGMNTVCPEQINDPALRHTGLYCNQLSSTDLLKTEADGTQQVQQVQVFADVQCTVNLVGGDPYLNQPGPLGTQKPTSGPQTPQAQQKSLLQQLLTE

With B1 the koff [1] was 0.00143 s⁻¹ and the “stoichiometry N” value [2] was 1.

B2: GR AF1:TBPC complex (complex, human)
chain 1: DLSKAVSLSMGLYMGETETKVMGNDLGFPQQGQISLSSGETDLKLLEESIANLNRSTSVPENPKSSASTAVSAAPTEKEFPKTHSDVSSEQQHLKGQTGTNGGNVKLYTTDQSTFDILQDLEFSSGSPGKETNESPWRSDLLIDENCLLSPLAGEDDSFLLEGNSNEDCKPLILPDTKPKIKDNGD
chain 2: SGIVPQLQNIVSTVNLGCKLDLKTIALRARNAEYNPKRFAAVIMRIREPRTTALIFSSGKMVCTGAKSEEQSRLAARKYARVVQKLGFPAKFLDFKIQNMVGSCDVKFPIRLEGLVLTHQQFSSYEPELFPGLIYRMIKPRIVLLIFVSGKVVLTGAKVRAEIYEAFENIYPILKGFRKTT
notes: human glucocorticoid receptor, AF1 domain, amino acid residues 77-262; as m1; as m2; AF1, TBPC and the nuclear extract were mixed at once; only AF1 was detected on the blot; also called AF1 complexed with TBPC; source: purified AF1 and purified TBPC (10 µg) mixed together with HeLa nuclear extract
B2 was tested, and the “fold increase against AF1 alone” value [3] was ~8 fold.

With B3 the “stoichiometry N” value [4] was ~1 and the Kd [5] was 460 nM.
